Data from the Immune Epitope Database (IEDB).

Experiments:
HLA-A*24:02 = test: IEDB peptide-MHC binding, purified MHC/competitive/fluorescence; ≥ and ≤ were set here for values at or beyond the usual limits of such assays; conditions: source organism: Zaire ebolavirus
HLA-A*03:01 [1] = test: as above; conditions: source organism: Zaire ebolavirus
HLA-A*11:01 [2] = test: as above; conditions: source organism: Zaire ebolavirus
HLA-A*02:12 [3] = test: IEDB peptide-MHC binding, purified MHC/competitive/fluorescence; filed as Kd, often an IC50 or EC50 that approximates it; ≥ and ≤ were set here for values at or beyond the usual limits of such assays; conditions: source organism: Giardia intestinalis ATCC 50581
HLA-B*15:01 [4] = test: as above
HLA-B*51:01 = test: as above
HLA-A*24:03 [5] = test: as above
HLA-B*46:01 = test: as above
HLA-B*27:03 = test: as above
HLA-A*26:01 [6] = test: as above
HLA-A*03:01 [7] = test: as above; conditions: source organism: Giardia intestinalis ATCC 50581
HLA-B*18:01 = test: as above
HLA-B*57:01 = test: as above
HLA-A*02:01 [8] = test: as above
HLA-B*39:01 = test: as above
HLA-B*07:02 [9] = test: IEDB peptide-MHC binding, purified MHC/competitive/fluorescence; ≥ and ≤ were set here for values at or beyond the usual limits of such assays; conditions: source organism: Zaire ebolavirus
HLA-B*15:01 [10] = test: as above; conditions: source organism: Zaire ebolavirus
HLA-B*08:01 [11] = test: as above; conditions: source organism: Zaire ebolavirus
HLA-A*69:01 [12] = test: IEDB peptide-MHC binding, purified MHC/competitive/fluorescence; filed as Kd, often an IC50 or EC50 that approximates it; ≥ and ≤ were set here for values at or beyond the usual limits of such assays; conditions: source organism: Zaire ebolavirus
HLA-A*02:11 = test: IEDB peptide-MHC binding, purified MHC/direct/fluorescence; filed as Kd, often an IC50 or EC50 that approximates it; ≥ and ≤ were set here for values at or beyond the usual limits of such assays; conditions: source organism: Zaire ebolavirus
HLA-A*02:03 = test: as above; conditions: source organism: Zaire ebolavirus
HLA-A*02:12 [13] = test: as above; conditions: source organism: Zaire ebolavirus
HLA-A*29:02 = test: as above; conditions: source organism: Zaire ebolavirus
HLA-A*02:16 = test: as above; conditions: source organism: Zaire ebolavirus
HLA-A*24:03 [14] = test: as above
HLA-A*26:01 [15] = test: as above
HLA-A*03:01 [16] = test: as above
HLA-A*02:19 = test: as above; conditions: source organism: Zaire ebolavirus
HLA-A*68:02 = test: as above; conditions: source organism: Zaire ebolavirus
HLA-A*02:01 [17] = test: IEDB peptide-MHC binding, purified MHC/competitive/fluorescence; ≥ and ≤ were set here for values at or beyond the usual limits of such assays; conditions: source organism: Zaire ebolavirus
HLA-B*15:17 = test: IEDB peptide-MHC binding, purified MHC/competitive/fluorescence; filed as Kd, often an IC50 or EC50 that approximates it; ≥ and ≤ were set here for values at or beyond the usual limits of such assays; conditions: source organism: Zaire ebolavirus
HLA-A*31:01 [18] = test: as above; conditions: source organism: Zaire ebolavirus
HLA-B*27:05 = test: IEDB peptide-MHC binding, purified MHC/direct/fluorescence; filed as Kd, often an IC50 or EC50 that approximates it; ≥ and ≤ were set here for values at or beyond the usual limits of such assays; conditions: source organism: Brucella abortus
HLA-A*69:01 [19] = test: as above; conditions: source organism: Brucella abortus
HLA-B*07:02 [20] = test: as above
HLA-B*58:01 = test: as above; conditions: source organism: Brucella abortus
HLA-A*31:01 [21] = test: as above; conditions: source organism: Brucella abortus
HLA-B*15:01 [22] = test: as above; conditions: source organism: Brucella melitensis
HLA-B*44:02 = test: as above; conditions: source organism: Brucella abortus
HLA-B*35:01 = test: as above; conditions: source organism: Brucella melitensis
HLA-B*08:01 [23] = test: as above
HLA-A*02:01 [24] = test: as above; conditions: source organism: Brucella abortus
HLA-B*40:01 = test: as above; conditions: source organism: Brucella abortus
HLA-A*11:01 [25] = test: as above; conditions: source organism: Brucella abortus
[26] = source organism: Giardia intestinalis ATCC 50581
[27] = source organism: Zaire ebolavirus
[28] = source organism: Brucella abortus
[29] = source organism: Ebola virus - Eckron (Zaire, 1976)

Row | Sequence | IC50 (HLA-A*24:02) [µM] | IC50 (HLA-A*03:01 [1]) [µM] | Kd (HLA-A*69:01 [12]) [µM] | Kd (HLA-B*51:01; [27]) [µM] | Kd (HLA-B*46:01; [27]) [µM] | Kd (HLA-B*27:03; [27]) [µM] | Kd (HLA-B*18:01; [27]) [µM] | Kd (HLA-B*57:01; [27]) [µM] | Kd (HLA-A*02:01 [8]; [27]) [µM] | Kd (HLA-B*39:01; [27]) [µM] | Kd (HLA-A*02:11) [µM] | Kd (HLA-A*02:03) [µM] | Kd (HLA-A*02:12 [13]) [µM] | Kd (HLA-A*02:16) [µM] | Kd (HLA-A*24:03 [14]; [27]) [µM] | Kd (HLA-A*02:19) [µM] | Kd (HLA-A*68:02) [µM] | further results
1 | FYWPVMNHK | 9.75 | 4.71 |  |  |  |  |  |  |  |  |  |  |  |  |  |  |  | IC50 (HLA-A*11:01 [2]): 4.52 µM
2 | GLYLYRFHV |  |  |  |  |  |  |  |  |  |  |  |  |  |  |  |  |  | Kd (HLA-A*02:12 [3]): 0.0055 µM; Kd (HLA-B*15:01 [4]; [26]): ≥ 20 µM; Kd (HLA-B*51:01; [26]): ≥ 20 µM; Kd (HLA-A*24:03 [5]; [26]): ≥ 20 µM; Kd (HLA-B*46:01; [26]): ≥ 20 µM; Kd (HLA-B*27:03; [26]): ≥ 20 µM; Kd (HLA-A*26:01 [6]; [26]): ≥ 20 µM; Kd (HLA-A*03:01 [7]): ≥ 20 µM; Kd (HLA-B*18:01; [26]): ≥ 20 µM; Kd (HLA-B*57:01; [26]): ≥ 20 µM; Kd (HLA-A*02:01 [8]; [26]): 0.0014 µM; Kd (HLA-B*39:01; [26]): ≥ 20 µM
3 | LYIEFTDNM |  |  |  |  |  |  |  |  |  |  |  |  |  |  |  |  |  | Kd (HLA-A*24:03 [5]; source organism: Escherichia coli 536): ≤ 0.001 µM
4 | TVIYRGTTF | 1.26 |  | ≥ 20 | ≥ 20 | ≥ 20 | ≥ 20 | ≥ 20 | ≥ 20 | ≥ 20 | ≥ 20 | ≥ 20 | ≥ 20 | ≥ 20 | ≥ 20 | ≥ 20 | ≥ 20 | ≥ 20 | IC50 (HLA-B*07:02 [9]): 14.3 µM; IC50 (HLA-B*15:01 [10]): 4.71 µM; IC50 (HLA-B*08:01 [11]): 45.4 µM; Kd (HLA-B*15:01 [4]; [27]): 0.0533 µM; Kd (HLA-A*29:02): ≥ 20 µM; Kd (HLA-A*26:01 [15]; [27]): 0.838 µM; Kd (HLA-A*03:01 [16]; [27]): ≥ 20 µM
5 | FLLMLCLHH |  | ≥ 129 |  |  |  |  |  |  |  |  |  |  |  |  |  |  |  | IC50 (HLA-A*02:01 [17]): 12.2 µM
6 | RVPTVFHKK |  |  | ≥ 20 | ≥ 20 | ≥ 20 | ≥ 20 | ≥ 20 | ≥ 20 | ≥ 20 | ≥ 20 | ≥ 20 | ≥ 20 | ≥ 20 | ≥ 20 | ≥ 20 | ≥ 20 | ≥ 20 | Kd (HLA-B*15:17): ≥ 20 µM; Kd (HLA-A*31:01 [18]): 0.0268 µM; Kd (HLA-B*15:01 [4]; [27]): ≥ 20 µM; Kd (HLA-A*26:01 [6]; [27]): ≥ 20 µM; Kd (HLA-A*29:02): ≥ 20 µM; Kd (HLA-A*03:01 [16]; source organism: Sudan ebolavirus - Uganda (2000)): 0.241 µM
7 | VYRDHSEKK | 29.2 | 25.3 |  |  |  |  |  |  |  |  |  |  |  |  |  |  |  | IC50 (HLA-A*11:01 [2]): 33.2 µM
8 | GYSFSIPGY |  |  |  |  |  |  |  |  |  |  |  |  |  |  |  |  |  | Kd (HLA-B*27:05): ≥ 20 µM; Kd (HLA-A*69:01 [19]): ≥ 20 µM; Kd (HLA-B*07:02 [20]; [28]): ≥ 20 µM; Kd (HLA-B*58:01): ≥ 20 µM; Kd (HLA-A*31:01 [21]): ≥ 20 µM; Kd (HLA-B*15:01 [22]): 0.548 µM; Kd (HLA-A*24:03 [14]; source organism: Brucella melitensis): 1.07 µM; Kd (HLA-B*44:02): ≥ 20 µM; Kd (HLA-A*26:01 [15]; [28]): ≥ 20 µM; Kd (HLA-A*03:01 [16]; [28]): ≥ 20 µM; Kd (HLA-B*35:01): 0.468 µM; Kd (HLA-B*08:01 [23]; [28]): ≥ 20 µM; Kd (HLA-A*02:01 [24]): ≥ 20 µM; Kd (HLA-B*40:01): ≥ 20 µM; Kd (HLA-A*11:01 [25]): ≥ 20 µM
9 | VVRVRRELL |  |  | ≥ 20 | ≥ 20 | ≥ 20 | ≥ 20 | ≥ 20 | ≥ 20 | ≥ 20 | ≥ 20 | ≥ 20 | ≥ 20 | ≥ 20 | ≥ 20 | ≥ 20 | ≥ 20 | ≥ 20 | Kd (HLA-A*26:01 [6]; [27]): ≥ 20 µM; Kd (HLA-B*07:02 [20]; [29]): 8 µM; Kd (HLA-A*03:01 [16]; [27]): ≥ 20 µM; Kd (HLA-B*08:01 [23]; [29]): 6 µM
